Target: GFP1-10 tagged with MCP, with nuclear localization sequences
Assay: P3 editing (protein-protein proximity joins crRNA-MS2 and BoxB-petracrRNA; prime editing read by amplicon sequencing); HEK293T cells; 12 designs of crRNA-MS2/BoxB-petracrRNA that vary the upper 4 bp of the Cas9-binding region of the repeat:anti-repeat duplex; tagged split-GFP against standard untagged GFP as background; normalized to the eCTT control

normalized editing efficiency (GAUA:UAUC design): 3.8%
Substance: GFP11 tagged with LambdaN, with nuclear localization sequences (peptide)
